Measured values as given in patent publication US20120321697A1, “BPB-BASED CARGO DELIVERY SYSTEM” (GWANGJU INSTITUTE OF SCIENCE AND TECHNOLOGY, priority 2009, published 2012).
No end group written: not given here.

Tests used:
fibronectin EDB [1] = biological target: T1, fibronectin EDB (Homo sapiens, UniProt P02751); test: Ka (1/Ms)
T1 construct: After transformation of pET28b vector carrying fibronectin ED-B into BL21 cells; His-tag (N); made in house; host or cells: E. coli BL21
Source text: (§1) Table printed on a drawing sheet, Fig. 11b
Head of the field: Ka (1/Ms)
(§2) The patent's description of the figure: FIG. 11a represents purification of the GST-BPB fusion protein.
(§3) FIG. 11b represents affinity of the GST-BPB to fibronectin EDB.
(§4) First copying reader's note: The name GST-BPB is printed only in Fig. 11a on this sheet, and the description gives Fig. 11b as its affinity to fibronectin EDB; the KD head says M but the cell prints nM.
(§5) Where the first naming reader finds the target: description_of_the_figure: FIG. 11b represents affinity of the GST-BPB to fibronectin EDB.

fibronectin EDB [2] = biological target: T1, fibronectin EDB; test: Kd (1/s)
Source text: as §1
Head of the field: Kd (1/s)
as §2, §3, §4, §5

T1 sequence (P02751 1271-1359): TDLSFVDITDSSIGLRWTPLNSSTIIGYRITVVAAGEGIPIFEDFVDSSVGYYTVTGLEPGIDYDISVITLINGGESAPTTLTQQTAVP

Ka (1/Ms) (fibronectin EDB [1]): 1.22 e4 1/Ms
Kd (fibronectin EDB [2]): 0.00347 s⁻¹
Substance: GST-BPB: fusion protein of glutathione S-transferase and BPB HCSSAVGSWTWENGKWTWKGIIRLEQ recognizing fibronectin EDB ({GST}-HCSSAVGSWTWENGKWTWKGIIRLEQ)
